{
  "source": "paper PMC4791852",
  "about": "(mBio, 2016)",
  "binders": {"B1": {"name": "KZ52 Fab (Fab, V domains shown)", "VH": "EVQLLESGGGLVKPGGSLRLSCAASGFTLINYRMNWVRQAPGKGLEWVSSISSSSSYIHYADSVKGRFTISRDNAENSLYLQMNSLRAEDTAVYYCVREGPRATGYSMADVFDIWGQGTMVTVSS", "VL": "not shown"}},
  "target": "T1, Ebola virus GPCL trimer (thermolysin-cleaved, purified GP ectodomain) (Ebola virus (Zaire ebolavirus); GP1 …)",
  "T1 chain 1": "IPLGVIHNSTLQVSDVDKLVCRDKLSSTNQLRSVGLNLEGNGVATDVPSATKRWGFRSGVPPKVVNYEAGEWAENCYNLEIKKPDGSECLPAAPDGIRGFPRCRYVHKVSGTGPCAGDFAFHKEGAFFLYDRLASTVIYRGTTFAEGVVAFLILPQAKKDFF",
  "T1 chain 2": "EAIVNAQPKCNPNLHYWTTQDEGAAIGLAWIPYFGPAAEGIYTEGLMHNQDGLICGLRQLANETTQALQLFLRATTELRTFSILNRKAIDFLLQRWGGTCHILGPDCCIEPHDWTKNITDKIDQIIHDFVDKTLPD",
  "assay": "crystal structure",
  "data": [
    {"binder": "B1", "values": [
      {"measurement": "binding result", "result": "binds"}
    ]}
  ]
}
